From the DeepSol protein solubility set

Assay: soluble on expression in E. coli; label from the status in PepcDB or PDB records
For “MAHHHHHHMSNDPKPTKPDPRVANNDVASDDGSDGKGDVAAPPAFLPTAGRVEVHPLVLLSLVDHYARMNTSAVQKKRVAGLLLGRYVRDSTGMQTLDINNSFAVPFDEDPQDAGVWFFDTNYAQEMFAMHKRVLPKVKVVGWYSSGPTIQPNDMLLHLLVADRFCLNPVYCVVNTDPNNKGVPVRAYTTVQGREGTRSLEFRNIPTHLGAEEAEEIGIEHLLRDLTDSTITTLSTQVQERELSLVHLCKVLQQIEEYLKDVGNAVMPISEDVLEVLQELISLQPEIYARRSSTEMIRHTNDEAIATFLAAIARCIGALHGVIMNRRKLARELQEIKDRRARAAETRLENEKMKIEEAAKEKDTNQA”, the “soluble on expression in E. coli” value was “not soluble”.
In the case of “MGSDKIHHHHHHMLPNRLLANRAYSTAINRFRVVEVGARDGLQAEKKFVPTEIKVELIDRLSECGFQTVETTSFVSPKWVPQLADHNEIVKKHRRFEGVSYPVLVPNAAGLKNALATGVVEEIAVFGAASDAFSLKNVNSNVEDSLKKLMEVTKIALENNIRVRGYVSVVVGCPYQGAVQPEMVARVAEKLLESGCYEVSLGDTIGVGTVKTVSKMLDTVLKSVPAEKLAVHFHDTYGQALANVLISIEKGIRSADSSIAGLGGCPYAKGATGNLATEDLLYFLKGNGFETGVNLDKVVETAKWFNEAAGYDKWSRVGAAMMAKKSKSCC”, the “soluble on expression in E. coli” value is reported as “not soluble”.
For “MGSDKIHHHHHHMKNLLDLTGKLNIYSPKFNRYQTSLMKIDMHRTKLEQKQPHFDAQKRRKKECKNSNTPFVRPKLELPHGHNKLLLHSCCAPCSGEVMEAIHASGIDFTIYFYNPNIHPLKEYLIRKEENIRFAEKWGIPFIDADYDRQNWFDRAKGMEDEPERGIRCTMCFDMRFEKAAQYAHENGFPVFTSCLGISRWKDMNQINGCGHRAAEKYDDVVYWDYNWRKGGGSQRMIEISKRERFYQQEYCGCVYSLRDTNKWREANGRQKIEIGKLYYSADK”, the “soluble on expression in E. coli” value was “not soluble”.
In the case of “MKNLSLFTDFYEISMMNAYFTKGINPKAKFEVFFRKTPFKNGYIVLAGMHTLINELKNIRFGENELKYLKSFNILDKQFLNFLREFKLNVKISSIEEGRIVFPQAPVVVIEGHLIELLLIEGLVLNIINFESLIATKTARIKESGAKILAELGLRRAQGINGALSASKAAYIGGADFTSNMLAGYKYNIPVTGTMAHSWIMSFETEEQAFREYAKTYPNKVSLLIDTYDTLNSGLKNAIKIFKELKHEEKNNFSIRIDSGDLEYLSKAARKELNRNGLNHVKIIASNELDENIIMYLNSINAPIDIWGVGTNLVTAKGDPSLSGVYKMISIEKNGKFIPKIKISNNAEKSTLPDQKEVARIYLNDQMILDFIFLKEEKDKIKDHLNSRKEFTVFHPIQDNIFKIIKQYDDFEFLTHTVLENGKLRKGYESSLTNIRNKTKLDLSKLEHTYKRIINPHIYKVSISKNLRKLKNKLTKDIKNN”, the “soluble on expression in E. coli” value is reported as “not soluble”.
In the case of “LEGTAGTITSNEWSSPTSPEGSTASGGSQALDKPIDNDAEGVWSPDIEQSFQEALAIYPPCGRRKIILSDEGKMYGRNELIARYIKLRTGKTRTRKQVSSHIQVLARRKAREIQAKLKDQAAKDKALQSMAAMSSAQIISATAFHSSMALARGPGRPAVSGFWQGALPGQAGTSHDVKPFSQQTYAVQPPLPLPGFESPAGPAPSPSAPPAPPWQGRSVASSKLWMLEFSAFLEQQQDPDTYNKHLFVHIGQSSPSYSDPYLEAVDIRQIYDKFPEKKGGLKDLFERGPSNAFFLVKFWADLNTNIEDEGSSFYGVSSQYESPENMIITCSTKVCSFGKQVVEKVETEYARYENGHYSYRIHRSPLCEYMINFIHKLKHLPEKYMMNSVLENFTILQVVTNRDTQETLLCIAYVFEVSASEHGAQHHIYRLVKE”, the “soluble on expression in E. coli” value is reported as “soluble”.
For “HHHHDYDIPTTENLYFQGHMTIHKKGQAHWEGDIKRGKGTVSTESGVLNQQPYGFNTRFEGEKGTNPEELIGAAHAACFSMALSLMLGEAGFTPTSIDTTADVSLDKVDAGFAITKIALKSEVAVPGIDASTFDGIIQKAKAGCPVSQVLKAEITLDYQLKS”, the “soluble on expression in E. coli” value was “soluble”.
With “MPEGKIIKALSGFYYVLDESEDSDKVIQCRGRGIFRKNKITPLVGDYVVYQAENDKEGYLMEIKERTNELIRPPICNVDQAVLVFSAVQPSFSTALLDRFLVLVEANDIQPIICITKMDLIEDQDTEDTIQAYAEDYRNIGYDVYLTSSKDQDSLADIIPHFQDKTTVFAGQSGVGKSSLLNAISPELGLRTNEISEHLGRGKHTTRHVELIHTSGGLVADTPGFSSLEFTDIEEEELGYTFPDIREKSSSCKFRGCLHLKEPKCAVKQAVEDGELKQYRYDHYVEFMTEIKDRKPRY” the “soluble on expression in E. coli” value was “not soluble”.
In the case of “MAHHHHHHMNKFENFYKVPISYKNRKNEIYKYDNLEYNKMKYGMPEYYRCPYYMHENRNLYNTESCYTPNINVGRNSFYGKTLDPNDKICEENDSVYNILEEDHKEESFKKIECMNKEDDRKKIYNKVEKNDDENIDNKKHNYCEKYEEVYPKDRSSIKIIYNDVDQQIDHNLYDDENEIVCDNEIKKRKKRDRKVFMGKYFFSDIINTIIYPCTNKSLQKYQYGSVENMDYSLYNDIQKGQKIQKVDKIKNKKAPQIIVKF”, the “soluble on expression in E. coli” value is reported as “not soluble”.
With “MSLEELPRFFTQNGRHALLVDGAPYTILAAQLHNSSAWPAVLPPALDQVVALHANTVEAPVYWEQFEPAPGRFDTTNVDALIAGARKRGLRVALLWFGSWKNGQMHYVPEWIKRDEATYPRMRDANGEPVDVLSPHVAANVQADARAFTALMQHLRKVDGDRHTVIVVQVENEPGAIGTVRDHGPAGEAAFAQPVPAGIAAALGKPAGSWQQLFGAEAAEAFNAHATAAYIEQVAAAGKRVYPLPLYVNTWLRYKGKRYPGMDYPSGGATVNVFALWRAATPSIDFIGTDIYTSDYGEYTKVIGQYAREGHHHHHH” the “soluble on expression in E. coli” value was “soluble”.
In the case of “MGSDKIHHHHHHWLDLAPSTQVDTETSINVLSDIEFTLNGIYSTMQSSDAYSGRLVYYGDVTGDDMQAVSSTKRTGNYYRFNFTKDNGPSSHWSYLYSIIQNCNLILMNVDKLSIDEDETEYKNDLKGQALAIRGMALFDLTRIFGYPYLKDNGASLGVPIVKELSTIDSKPARNTVAECYTEIISDLKNSTELLSGDFNKGKVNRWAAMTLLSRVYLYKGEYNEALTMAENAIKGAEKEGYALWTNEEYPTAWGNDASASNPGEILFEIVNLTTDSPGKESMGYLNSYNGYDDMCITCSFYQLLKKDPKDVRLKILSFDKKYYAYVNKYQPQQGENITDANIPLIRLSEAYLNAAEAAVQTGDNAKAVKYLNSIVQRANPENSVEGKTLTLENVLDERRKELVAEGHRMYDVIRNGMTVKRIDVKDSDINKTKHNTAYMEYDWNFHKILLPIPKKEMDANPNMKQNPGYVD”, the “soluble on expression in E. coli” value is reported as “not soluble”.
For “MGSDKIHHHHHHMAKDIEISASESKFILEALRQNYRLDGRSFDQFRDVEITFGKEFGDVSVKMGNTKVHCRISCQIAQPYEDRPFEGLFVISTEISPMAGSQFENGNITGEDEVLCSRIIEKSVRRSGALDVEGLCIVAGSKCWAVRADVHFLDCDGGFIDASCIAVMAGLMHFKKPDITVHGEQIIVHPVNEREPVPLGILHIPICVTFSFFNPQDTEENIKGETNSEISIIDATLKEELLRDGVLTVTLNKNREVVQVSKAGGLPMDALTLMKCCHEAYSIIEKITDQILQLLKEDSEKRNKYAAMLTSENAREI”, the “soluble on expression in E. coli” value was “not soluble”.
With “MGSSHHHHHHSSGRENLYFQGHMPCQPACPVSADTWAPSAVPDDYRYADLHLPQQVGQASLAAECAVAISYNGLNQAVMMASPEDIEDFVRGFSLSSGFVESIDDIYEIRVSGQGESLHAEVEISSRAFWNLKRQRRQLAGTSGCGLCGVEALEQALPQLPERSPQALPPAAHLGALRQRIEQAQRLARHSGALHAALYFDGHGELRLCREDIGRHNALDKLIGALHRQGLDAARGFAVVTSRCSLELIHKAVRAGIGTLVSLSAPTALTVQWARRHQLNLIHQPHHNAPRVYSPAPAATE” the “soluble on expression in E. coli” value was “soluble”.
In the case of “RYPTNNFGNCTGCSATFSVLKKRRSCSNCGNSFCSRCCSFKVPKSSMGATAPEAQRETVFVCASCNQTLSK”, the “soluble on expression in E. coli” value is reported as “soluble”.
With “MGSDKIHHHHHHMSSLLQQFHDEISLRGYSARTRNAYLYAITQLQHYANQPLDNITDEQLTAYFRYLNLEWHHSRATLKLQLNGIHFFYEHVLKRDFTIQLSLPKRPHKLPQLLSCQDIAALLYHCQNLKQRAMLALCYGCGLRVSELTHIKVADIDGQRQLLKVCQGKGACDRWVILSPTLLILLRQYWQAYHPVEWLFASTYHDVVYPLHESTFRKALAKAARLASITKPCSPHSLRHAYATHQLQAGMPLHQLQAQLGHHSIKSTERYLHWSPELGHQGCDLLASLGGMPWQPPTI” the “soluble on expression in E. coli” value was “not soluble”.
